Experimental data: patent publication CN111138527A (INST MILITARY MEDICINE ACADEMY MILITARY SCIENCES PLA, dated 2020)

Columns and labels:
sGP = sGP (Ebola virus (EBOV), UniProt P60170 33-295); assay: ELISA on coated truncated GP
GP1 = GP1 (Ebola virus (EBOV), UniProt Q05320 33-501); assay: ELISA on coated truncated GP
GP 95-295 = GP 95-295 (Ebola virus (EBOV), UniProt Q05320 95-295); assay: ELISA on coated truncated GP
EBOV GP = molecular target: T1, EBOV GP (Ebola virus (EBOV), UniProt Q05320 33-650); assay: ELISA, EBOV GP coated at 1 μg/mL
T1 sequence: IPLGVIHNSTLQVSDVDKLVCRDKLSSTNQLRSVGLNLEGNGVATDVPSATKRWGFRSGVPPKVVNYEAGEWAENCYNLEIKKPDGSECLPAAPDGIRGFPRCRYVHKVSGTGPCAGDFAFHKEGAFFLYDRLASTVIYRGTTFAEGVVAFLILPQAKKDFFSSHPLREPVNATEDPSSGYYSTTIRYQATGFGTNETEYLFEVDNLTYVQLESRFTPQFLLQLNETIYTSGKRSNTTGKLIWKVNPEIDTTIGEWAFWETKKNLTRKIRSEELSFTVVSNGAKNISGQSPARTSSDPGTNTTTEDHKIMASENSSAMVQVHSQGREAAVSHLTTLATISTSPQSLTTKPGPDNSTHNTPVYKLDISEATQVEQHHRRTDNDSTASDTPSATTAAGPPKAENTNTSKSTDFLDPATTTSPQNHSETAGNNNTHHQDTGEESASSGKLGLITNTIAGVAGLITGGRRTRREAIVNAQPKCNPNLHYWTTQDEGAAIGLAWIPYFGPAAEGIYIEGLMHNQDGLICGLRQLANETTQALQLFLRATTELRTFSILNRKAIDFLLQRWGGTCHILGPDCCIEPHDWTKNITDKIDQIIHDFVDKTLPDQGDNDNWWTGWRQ

B1: 抗埃博拉病毒糖蛋白GP1亚基的单克隆抗体4F1 (antibody, V domains shown)
VH: EVQLVESGGGLVQPGGSLRLSCAASGFSFRIYDMHWVRQVTGRGLEWVSAIGSASDTYYRDSVKGRFTISRENAKNSLYLQMNSLRAGDTAVYYCARASFGELMFDLWGQGTLVTVSS
VL: DIQMTQSPSSLSLSPGERATLSCRASQSVGSSLAWYQQKPGQAPRLLIYAASSRATGFPDRFSGSGSGTDFTLTISRLEPEDFAVYYCQQYGGSPLTFGGGTKVEIKT
**Q.** What does the source list for B1?
**A.** EC50 (sGP): 3.9 ng/mL; EC50 (GP1): 7.8 ng/mL; EC50 (GP 95-295): 33 ng/mL; fold decrease of binding activity relative to GPdTM (GP 95-295): ~5 fold; EC50 (EBOV GP): 5.7 ng/mL
